Earlier results, collected in publication PMC5257200.

Molecular target: His19 (UniProt position 19, ILSALHFMAWT)
Conditions: Membrane-bound peptide

Influenza B virus M2 protein peptide BM2(3–33) (Influenza B virus (strain not stated for this construct))
pKa: ~6.5
